According to article PMC12209930, “A TATA-box-binding protein binds single-stranded DNA in two modes: To poly(G) tracts and to flexible DNA regions”:

T1: gTBP (GST-gTBP) (Giardia intestinalis WB C6 (ATCC 50803), UniProt E2RU70 1-200)
T1 sequence: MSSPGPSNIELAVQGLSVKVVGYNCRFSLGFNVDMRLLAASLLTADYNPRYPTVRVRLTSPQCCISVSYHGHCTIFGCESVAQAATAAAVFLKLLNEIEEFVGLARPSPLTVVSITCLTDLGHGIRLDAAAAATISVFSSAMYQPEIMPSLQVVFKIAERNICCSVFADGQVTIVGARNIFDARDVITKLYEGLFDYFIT

B1: H4 S2 (ssDNA)
DNA: TACCTCACCTGCTTCTTCTTCGCGTTCCCTCCTCCAGCCCAAACTTGCGCCTCAT
B2: H4 S1 (ssDNA)
DNA: ACACCCACCTGCTTCCTCTGCGCCCTTTCCCTCCAGCTTAGACCATCGCGTTCAT
B3: aGN-a (ssDNA)
DNA: CAATTTGAGCTTCAAAAAATACCGCCAAAAAATGGCAATTCGGTTTTAAAAATG
B4: H2B S1 (ssDNA)
DNA: ACCCCTCCTTCGCTCGCTCCTTCCTTTCTCCCGCAGCCGAGACTTGCGCTTTACGTGATCC
B5: H4-b (ssDNA)
DNA: CATTTTTATTTGCCCCTTCCCGCGTCTTCTTTTTTAGCCCAAATCTGCGCCCTAC
B6: H2B-b (ssDNA)
DNA: ATTTCTTTCCCGCCCGCTTTTTCCCCCCTTCCGCAGCCGAAATCTGCGCCCCTGTGCACTTCTA
B7: H2B-a (ssDNA)
DNA: TAGAAGTGCACAGGGGCGCAGATTTCGGCTGCGGAAGGGGGGAAAAAGCGGGCGGGAAAGAAAT
B8: H4-a (ssDNA)
DNA: GTAGGGCGCAGATTTGGGCTAAAAAAGAAGACGCGGGAAGGGGCAAATAAAAATG
B9: H2B S2 (ssDNA)
DNA: CACCTTCTCAGCGACGCTTCCTCTTTCCCTAGCGACGTGTAACCACGCGATTTGTGCCATC

What follows are binders tested against T1, gTBP (GST-gTBP) (assay: competition; vs H4-b probe; 10 mM Tris-HCl pH 8.0, 0.15 M NaCl, 0.5 mM TCEP, 5% glycerol, 1 ug/ul BSA, 15 ng/ul salmon sperm DNA, 30 min on ice; probe 0.1 pmol/ul, competitor 200-fold excess). Settings: protein: recombinant; tags: N-terminal GST.

| Binder | binding result |
| --- | --- |
| CATTTTTATTTGCCCCTTCCCGCGTCTT (ssDNA) [H4 L] | binds |
| B1 | binds |
| CTTTTTTAGCCCAAATCTGCGCCCTAC (ssDNA) [H4 R] | binds |
| B2 | binds |
| CCTTCCCGCGTCTTCTTTTTTAGCCCAA (ssDNA) [H4 C] | binds |

What follows are binders tested against T1, gTBP (GST-gTBP) (assay: competition; vs H2B-a probe; 10 mM Tris-HCl pH 8.0, 0.15 M NaCl, 0.5 mM TCEP, 5% glycerol, 1 ug/ul BSA, 15 ng/ul salmon sperm DNA, 30 min on ice; probe 0.1 pmol/ul, competitor 200-fold excess). Settings: protein: recombinant; tags: N-terminal GST.

| Binder | binding result |
| --- | --- |
| CTGCGGTTGGGGGGTTTTAGCGGGCGGGAAAGAAAT (ssDNA) [H2B-a R3] | binds |

Each binder was assayed against T1, gTBP (GST-gTBP) (assay: competition; vs H2B-b probe; 10 mM Tris-HCl pH 8.0, 0.15 M NaCl, 0.5 mM TCEP, 5% glycerol, 1 ug/ul BSA, 15 ng/ul salmon sperm DNA, 30 min on ice; probe 0.1 pmol/ul, competitor 200-fold excess). Settings: protein: recombinant; tags: N-terminal GST.

| Binder | binding result |
| --- | --- |
| B3 | no binding |
| ATTTCTTTCCCGCCCGCTTTTTCCCCCCTT (ssDNA) [H2B L] | binds |
| B4 | binds |

These binders were tested against T1, gTBP (GST-gTBP) (assay: EMSA; B1+B2 complexes; Hill n about 2; 10 mM Tris-HCl pH 8.0, 0.15 M NaCl, 0.5 mM TCEP, 5% glycerol, 1 ug/ul BSA, 15 ng/ul salmon sperm DNA, 30 min on ice; probe 0.1 pmol/ul, competitor 200-fold excess). Settings: protein: recombinant; tags: N-terminal GST; label: 5'Cy5 (probe).

| Binder | Kd |
| --- | --- |
| B5 | 7 µM |
| B6 | 5 µM |

These binders were tested against T1, gTBP (GST-gTBP) (assay: competition; vs H4-b and H2B-b probes; 10 mM Tris-HCl pH 8.0, 0.15 M NaCl, 0.5 mM TCEP, 5% glycerol, 1 ug/ul BSA, 15 ng/ul salmon sperm DNA, 30 min on ice; probe 0.1 pmol/ul, competitor 200-fold excess). Settings: protein: recombinant; tags: N-terminal GST.

| Binder | binding result |
| --- | --- |
| TTTTTTTTTTTTTTTTTTTTTTTTTTTTTT (ssDNA) [polyT(30)] | binds |
| AAAATTATACCTATGCCGCCGCACTCAAAA (ssDNA) [dn 14] | binds |
| AAAACTCCTCCCTTGCCGCCGTTCCCAAAA (ssDNA) [dn 8] | binds |
| AAAAAAAAAAAAAAAAAAAAAAAAAAAAAA (ssDNA) [dn 1] | no binding |
| AAAACTCCTCCCTTCCCTTTCTTCCCAAAA (ssDNA) [dn 13] | binds |
| AAAAATTATACCTATGCCGCACTCAAAAAA (ssDNA) [dn 15] | binds |
| AAAACTCCTCCCTTCCCGTTCTTCCCAAAA (ssDNA) [dn 12] | binds |
| AAAAAAAAAAAAAAAAAAAAAAAAAAAAAA (ssDNA) [polyA(30)] | no binding |

Each binder was assayed against T1, gTBP (GST-gTBP) (assay: EMSA; A complex; total binding, Hill fit; 10 mM Tris-HCl pH 8.0, 0.15 M NaCl, 0.5 mM TCEP, 5% glycerol, 1 ug/ul BSA, 15 ng/ul salmon sperm DNA, 30 min on ice; probe 0.1 pmol/ul, competitor 200-fold excess). Settings: protein: recombinant; tags: N-terminal GST; label: 5'Cy5.

| Binder | Kd |
| --- | --- |
| B7 | 7200 µM |
| B8 | 500 µM |

Each binder was assayed against T1, gTBP (GST-gTBP) (assay: competition; vs H2B-a probe; better than L; 10 mM Tris-HCl pH 8.0, 0.15 M NaCl, 0.5 mM TCEP, 5% glycerol, 1 ug/ul BSA, 15 ng/ul salmon sperm DNA, 30 min on ice; probe 0.1 pmol/ul, competitor 200-fold excess). Settings: protein: recombinant; tags: N-terminal GST.

| Binder | binding result |
| --- | --- |
| TAGAAGTGCACAGGGGGGCAGATTTCGGCTGC (ssDNA) [H2B-a L1] | binds |
| CTGCGGAAGGGGGGAAAAAGCGGGCGGGAAAGAAAT (ssDNA) [H2B-a Right (R)] | binds |

What follows are binders tested against T1, gTBP (GST-gTBP) (assay: competition; vs H2B-b probe; less well than H2B S1; 10 mM Tris-HCl pH 8.0, 0.15 M NaCl, 0.5 mM TCEP, 5% glycerol, 1 ug/ul BSA, 15 ng/ul salmon sperm DNA, 30 min on ice; probe 0.1 pmol/ul, competitor 200-fold excess). Settings: protein: recombinant; tags: N-terminal GST.

| Binder | binding result |
| --- | --- |
| B9 | binds |

The binders below were run against T1, gTBP (GST-gTBP) (assay: competition; vs H2B-a and H4-a; annealed in Na+ and K+; 10 mM Tris-HCl pH 8.0, 0.15 M NaCl, 0.5 mM TCEP, 5% glycerol, 1 ug/ul BSA, 15 ng/ul salmon sperm DNA, 30 min on ice; probe 0.1 pmol/ul, competitor 200-fold excess). Settings: protein: recombinant; tags: N-terminal GST.

| Binder | binding result |
| --- | --- |
| GGGGTTTTGGGGTTTTGGGGTTTTGGGG (structured_DNA) [Oxytricha telomere (Oxy)] | binds |
| TAGGGTAGGGTAGGGTAGGG (structured_DNA) [Giardia telomere (Gia)] | binds |
| GGGTTAGGGTTAGGGTTAGGGT (structured_DNA) [Human-1 telomere (Hu1)] | binds |
